Substrate: Nc1ncnc2c1ncn2[C@@H]1O[C@H](COP(=O)(O)OP(=O)(O)OP(=O)(O)O)[C@@H](O)[C@H]1O
Test: ATP hydrolysis, thin layer chromatography of [α-32P]-ADP
Type: biochemical, Saccharomyces cerevisiae
Conditions: 200 nM MutLγ, 25 mM Tris-HCl pH 7.5, 5 mM MgCl2, 1 mg/ml BSA, 30°C, no DNA, labelled compound as tracer (33 nM [α-32P]-ATP plus cold ATP), both subunits carry a GHKL ATPase domain, single apparent Km

B1: MutLγ (Mlh1-Mlh3) (Saccharomyces cerevisiae S288C) (protein)
chain 1: MSLRIKALDASVVNKIAAGEIIISPVNALKEMMENSIDANATMIDILVKEGGIKVLQITDNGSGINKADLPILCERFTTSKLQKFEDLSQIQTYGFRGEALASISHVARVTVTTKVKEDRCAWRVSYAEGKMLESPKPVAGKDGTTILVEDLFFNIPSRLRALRSHNDEYSKILDVVGRYAIHSKDIGFSCKKFGDSNYSLSVKPSYTVQDRIRTVFNKSVASNLITFHISKVEDLNLESVDGKVCNLNFISKKSISPIFFINNRLVTCDLLRRALNSVYSNYLPKGNRPFIYLGIVIDPAAVDVNVHPTKREVRFLSQDEIIEKIANQLHAELSAIDTSRTFKASSISTNKPESLIPFNDTIESDRNRKSLRQAQVVENSYTTANSQLRKAKRQENKLVRIDASQAKITSFLSSSQQFNFEGSSTKRQLSEPKVTNVSHSQEAEKLTLNESEQPRDANTINDNDLKDQPKKKQKLGDYKVPSIADDEKNALPISKDGYIRVPKERVNVNLTSIKKLREKVDDSIHRELTDIFANLNYVGVVDEERRLAAIQHDLKLFLIDYGSVCYELFYQIGLTDFANFGKINLQSTNVSDDIVLYNLLSEFDELNDDASKEKIISKIWDMSSMLNEYYSIELVNDGLDNDLKSVKLKSLPLLLKGYIPSLVKLPFFIYRLGKEVDWEDEQECLDGILREIALLYIPDMVPKVDTSDASLSEDEKAQFINRKEHISSLLEHVLFPCIKRRFLAPRHILKDVVEIANLPDLYKVFERC
chain 2: MSQHIRKLDSDVSERLKSQACTVSLASAVREIVQNSVDAHATTIDVMIDLPNLSFAVYDDGIGLTRSDLNILATQNYTSKIRKMNDLVTMKTYGYRGDALYSISNVSNLFVCSKKKDYNSAWMRKFPSKSVMLSENTILPIDPFWKICPWSRTKSGTVVIVEDMLYNLPVRRRILKEEPPFKTFNTIKADMLQILVMHPMISLNVQYTDKLRINTEVLFRSKNITEGLTKHQQMSQVLRNVFGAIIPPDMLKKVSLKFNEYQIEGIISKMPVGLKDLQFIYINGRRYADSAFQGYVDSLFQAQDFGEKGMSLLKTKSVGKPYRSHPVFILDVRCPQTIDDLLQDPAKKIVKPSHIRTIEPLIVKTIRSFLTFQGYLTPDKSDSSFEIVNCSQKTATLPDSRIQISKRNQVLNSKMKIARINSYIGKPAVNGCRINNSTINYEKIKNIRIDGQKSRLRNKLSSRPYDSGFTEDYDSIGKTITDFSISRSVLAKYEVINQVDKKFILIRCLDQSIHNCPLLVLVDQHACDERIRLEELFYSLLTEVVTGTFVARDLKDCCIEVDRTEADLFKHYQSEFKKWGIGYETIEGTMETSLLEIKTLPEMLTSKYNGDKDYLKMVLLQHAHDLKDFKKLPMDLSHFENYTSVDKLYWWKYSSCVPTVFHEILNSKACRSAVMFGDELTRQECIILISKLSRCHNPFECAHGRPSMVPIAELK
notes: full-length heterodimer (175 kDa), N-terminal 6xHis-2xFlag tag kept on Mlh1 (Mlh3 untagged), co-expressed from baculoviruses in Sf9 cells
B1 showed a Km of 64 ± 13 µM.

— publication PMC5448812, “Distinct DNA-binding surfaces in the ATPase and linker domains of MutLγ determine its substrate specificities and exert separable functions in meiotic recombination and mismatch repair” (PLoS Genetics, 2017)
